In US20230203172A1 one finds IC50 (ng/ml), inhibition of IL-4-induced TF-1 cell proliferation data, which are given here for one substance.

This experiment deals with human IL-4R alpha on cells (TF-1 cells; human peripheral blood mononuclear cells) (human) (UniProt P24394). The experiment is described as follows: cell-based or functional assay.

Substance Dupilumab (antibody) displayed an IC50 (ng/ml), inhibition of IL-4-induced TF-1 cell proliferation of 138 ng/mL.
